How the values were obtained:
[1] = target: PD-L1 (coated in the ELISA) (not stated (human or mouse PD-L1 coated)) (UniProt Q9NZQ7); assay: ELISA; human PD-L1
[2] = target: PD-L1 (coated in the ELISA) (not stated (human or mouse PD-L1 coated)) (UniProt Q9NZQ7); assay: ELISA; mouse PD-L1; details: Fc fusion
PlGF = PlGF (UniProt P49763); assay: ELISA; details: Fc fusion
hVEGFA165 (human) = hVEGFA165 (human) (UniProt P15692); assay: ELISA; details: Fc fusion
Chain of hVEGFA165 (human) (P15692 other isoform, or with tags, fused parts or gaps): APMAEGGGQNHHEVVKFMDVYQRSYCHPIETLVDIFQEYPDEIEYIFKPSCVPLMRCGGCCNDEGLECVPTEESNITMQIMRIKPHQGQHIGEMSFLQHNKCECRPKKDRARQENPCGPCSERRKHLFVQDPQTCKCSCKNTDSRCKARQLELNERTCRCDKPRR

Chain of PD-L1 (coated in the ELISA) (not stated (human or mouse PD-L1 coated)) (Q9NZQ7 19-290): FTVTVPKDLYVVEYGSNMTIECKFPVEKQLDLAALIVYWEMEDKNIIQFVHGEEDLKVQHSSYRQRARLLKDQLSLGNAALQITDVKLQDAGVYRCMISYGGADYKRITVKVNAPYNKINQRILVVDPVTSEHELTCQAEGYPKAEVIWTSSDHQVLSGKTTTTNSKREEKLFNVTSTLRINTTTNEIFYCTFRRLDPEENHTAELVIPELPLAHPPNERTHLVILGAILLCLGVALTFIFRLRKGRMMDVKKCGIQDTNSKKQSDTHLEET
Chain of Ate-Grab (P17948 whole entry, looked up): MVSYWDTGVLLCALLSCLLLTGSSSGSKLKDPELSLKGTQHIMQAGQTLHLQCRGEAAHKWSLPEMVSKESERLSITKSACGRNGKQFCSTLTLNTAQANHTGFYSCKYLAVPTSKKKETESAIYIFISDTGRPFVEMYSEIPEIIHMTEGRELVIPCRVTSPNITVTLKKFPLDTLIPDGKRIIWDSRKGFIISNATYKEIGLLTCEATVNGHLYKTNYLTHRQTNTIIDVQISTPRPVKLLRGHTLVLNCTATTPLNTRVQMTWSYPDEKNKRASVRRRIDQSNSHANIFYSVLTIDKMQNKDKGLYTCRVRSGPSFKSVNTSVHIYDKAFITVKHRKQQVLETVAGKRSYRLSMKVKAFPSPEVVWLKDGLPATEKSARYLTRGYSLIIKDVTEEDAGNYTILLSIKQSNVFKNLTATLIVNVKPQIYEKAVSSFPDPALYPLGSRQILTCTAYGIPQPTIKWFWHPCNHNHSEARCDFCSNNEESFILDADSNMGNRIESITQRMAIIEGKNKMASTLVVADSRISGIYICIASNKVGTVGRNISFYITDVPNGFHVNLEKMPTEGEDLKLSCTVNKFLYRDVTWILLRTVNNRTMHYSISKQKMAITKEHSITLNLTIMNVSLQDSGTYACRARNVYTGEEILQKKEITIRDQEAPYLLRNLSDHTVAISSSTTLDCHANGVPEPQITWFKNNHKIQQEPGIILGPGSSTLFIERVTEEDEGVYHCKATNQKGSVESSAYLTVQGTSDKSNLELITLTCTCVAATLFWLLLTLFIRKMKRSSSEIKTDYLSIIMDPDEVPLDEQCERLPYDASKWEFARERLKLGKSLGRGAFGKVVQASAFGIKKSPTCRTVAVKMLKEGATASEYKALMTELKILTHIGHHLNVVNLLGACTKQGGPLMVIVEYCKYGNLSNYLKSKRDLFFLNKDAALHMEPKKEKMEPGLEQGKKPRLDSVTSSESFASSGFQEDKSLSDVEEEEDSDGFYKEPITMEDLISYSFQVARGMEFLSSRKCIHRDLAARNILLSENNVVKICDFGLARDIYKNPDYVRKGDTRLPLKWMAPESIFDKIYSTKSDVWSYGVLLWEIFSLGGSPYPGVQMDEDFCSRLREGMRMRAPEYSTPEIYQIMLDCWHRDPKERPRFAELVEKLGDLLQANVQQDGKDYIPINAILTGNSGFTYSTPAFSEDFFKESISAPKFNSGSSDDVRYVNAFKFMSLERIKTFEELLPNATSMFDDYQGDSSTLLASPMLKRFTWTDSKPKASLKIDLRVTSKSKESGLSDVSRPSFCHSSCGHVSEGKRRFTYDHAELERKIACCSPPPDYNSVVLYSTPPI
Chain of PlGF (P49763 19-221): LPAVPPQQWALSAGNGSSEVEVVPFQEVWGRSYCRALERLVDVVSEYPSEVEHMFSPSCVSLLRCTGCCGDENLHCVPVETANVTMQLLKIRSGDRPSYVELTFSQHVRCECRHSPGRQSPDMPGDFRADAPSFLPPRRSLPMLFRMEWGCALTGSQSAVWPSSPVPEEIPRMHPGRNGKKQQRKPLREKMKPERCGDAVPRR
Chain of VEGF-Grab (P17948 whole entry, looked up): as the sequence (P17948 whole entry, looked up) above

In the case of Ate-Grab (from UniProt P17948), the EC50 ([1]; Fc fusion) is reported as 222 pM, the EC50 [2] is reported as 374 pM and the EC50 (PlGF) is reported as 929 pM. It also gave an EC50 (hVEGFA165 (human)) of 652 pM.
Atezolizumab showed an EC50 [1] of 107 pM.
In the case of VEGF-Grab (from UniProt P17948), the EC50 (PlGF) is reported as 619 pM and the EC50 (hVEGFA165 (human)) is reported as 686 pM.

— paper PMC9588060
